# Measurements from patent publication US20200054736A1.
# Columns and labels:
# [1] = molecular target: meHER2-CAR, orientation Lc-Hc28ζ (meditope-enabled trastuzumab Fab-CAR); test: flow cytometry of lentivirally transduced primary human T cells stained with Meditope-AF647, top trace meHer2 (Lc-Hc28ζ). Untransduced control on the sheet: 1.83% MFI:1306.
# [2] = molecular target: meHER2-CAR, orientation Lc-Hc28ζ (meditope-enabled trastuzumab Fab-CAR); test: flow cytometry of meHer2 (Lc-Hc28ζ) T cells pre-bound to meditope peptide and stained with protein L. Untransduced control, same quadrant: 0.50%.
# [3] = molecular target: meHER2-CAR, orientation Hc28ζ-Lc (meditope-enabled trastuzumab Fab-CAR); test: flow cytometry of meHer2 (Hc28 ζ-Lc) T cells pre-bound to meditope peptide and stained with protein L. Untransduced control, same quadrant: 0.50%.
# [4] = molecular target: meHER2-CAR, orientation Hc28ζ-Lc (meditope-enabled trastuzumab Fab-CAR); test: flow cytometry of lentivirally transduced primary human T cells stained with Meditope-AF647, middle trace meHer2 (Hc28 ζ-Lc). Untransduced control on the sheet: 1.83% MFI:1306.
# [5] = molecular target: original trastuzumab meFab; test: Kinexa experiments, 25° C. (data not shown)
# [6] = molecular target: Fab of the meditope-Fab interaction (not specified); test: estimated; method not stated
# [7] = molecular target: meHER2-CAR, orientation Hc28ζ-Lc (meditope-enabled trastuzumab Fab-CAR); test: flow cytometry of meHer2 (Hc28 ζ-Lc) T cells pre-bound to meditope peptide and stained with protein L. Untransduced control, same quadrant: 7.23%.
# [8] = molecular target: meHER2-CAR, orientation Hc28ζ-Lc (meditope-enabled trastuzumab Fab-CAR); test: flow cytometry of lentivirally transduced primary human T cells stained with protein L, middle trace meHer2 (Hc28 ζ-Lc). Untransduced control on the sheet: 13.16% MFI:1418.
# [9] = molecular target: meHER2-CAR, orientation Hc28ζ-Lc (meditope-enabled trastuzumab Fab-CAR); test: flow cytometry of meHer2 (Hc28 ζ-Lc) T cells pre-bound to meditope peptide and stained with protein L. Untransduced control, same quadrant: 0.63%.
# [10] = molecular target: meHER2-CAR, orientation Lc-Hc28ζ (meditope-enabled trastuzumab Fab-CAR); test: flow cytometry of meHer2 (Lc-Hc28ζ) T cells pre-bound to meditope peptide and stained with protein L. Untransduced control, same quadrant: 0.63%.
# [11] = molecular target: meHER2-CAR, orientation Lc-Hc28ζ (meditope-enabled trastuzumab Fab-CAR); test: flow cytometry of meHer2 (Lc-Hc28ζ) T cells pre-bound to meditope peptide and stained with protein L. Untransduced control, same quadrant: 7.23%.
substance,measurement,setting,value
Meditope-AF647 (peptide),% positive cells (marker gate),[1],57.1%
same,% cells Meditope+ Protein L- (upper left quadrant),[2],2.09%
same,% cells Meditope+ Protein L- (upper left quadrant),[3],2.6%
same,% positive cells (marker gate),[4],54.4%
meditope-protein L fusion (MPL),Kd,[5],0.014 nM
same,fold over the affinity of the individual components,[5],87000 fold
same,half-life of the complex,[6],> 80 days
protein L,% cells Meditope- Protein L+ (lower right quadrant),[7],4.04%
same,% positive cells (marker gate),[8],51.8%
same,% cells Meditope+ Protein L+ (upper right quadrant),[9],42.1%
same,% cells Meditope+ Protein L+ (upper right quadrant),[10],43.1%
same,% cells Meditope- Protein L+ (lower right quadrant),[11],16.1%
